± gives the uncertainty stated by the source.
B1: Segment polarity protein dishevelled homolog DVL-3, residues 2 to 81; numbered along this chain, Q92997 (parent)
chain: GETKIIYHLDGQETPYLVKLPLPAERVTLADFKGVLQRPSYKFFFKSMDDDFGVVKEEISDDNAKLPCFNGRVVSWLVSA

Variants of: B1
Test: abundance fitness (aPCA) (normalised: wild type 0, dead -1); higher = more abundant; growth selection in yeast, the domain comes from the species named
Conditions: Homo sapiens

| Variant | abundance fitness |
| --- | --- |
| E25Q | -0.389 ± 0.1 |
| G11M | -0.617 ± 0.12 |
| W76H | -1.2 ± 0.38 |
| T28K | -0.52 ± 0.1 |
| A24K | -0.174 ± 0.1 |
| L77Y | -0.911 ± 0.14 |
| D31G | -0.776 ± 0.1 |
| D51S | 0.072 ± 0.056 |
| R72D | -0.272 ± 0.077 |
| P15A | -0.142 ± 0.055 |
| P39I | -0.066 ± 0.2 |
| A24F | -0.549 ± 0.15 |
| N63S | -0.104 ± 0.054 |
| F32V | -0.819 ± 0.1 |
| S47I | 0.336 ± 0.075 |
| V35G | -0.842 ± 0.085 |
| F32D | -0.688 ± 0.23 |
| F44V | -0.756 ± 0.088 |
| S79K | -0.204 ± 0.076 |
| I5Y | -0.969 ± 0.23 |
| H8L | -0.542 ± 0.076 |
| T3A | -0.684 ± 0.089 |
| C68F | -0.112 ± 0.071 |
| F44H | -0.807 ± 0.24 |

| Variant | abundance fitness |
| --- | --- |
| P15E | 0.136 ± 0.052 |
| F43C | -0.391 ± 0.12 |
| V18A | -0.264 ± 0.059 |
| V78Y | 0.102 ± 0.069 |
| Y7G | -0.833 ± 0.09 |
| F52M | 0.156 ± 0.056 |
| D61V | -0.695 ± 0.093 |
| P67E | -0.432 ± 0.095 |
| R72C | 0.222 ± 0.054 |
| S40E | 0.003 ± 0.057 |
| H8I | -0.681 ± 0.17 |
| T28L | -0.73 ± 0.091 |
| D51C | -0.191 ± 0.11 |
| K46L | -0.138 ± 0.056 |
| D62M | -0.441 ± 0.11 |
| K33I | -0.939 ± 0.26 |
| V78L | -0.398 ± 0.093 |
| D10K | -0.791 ± 0.13 |
| F44G | -0.754 ± 0.075 |
| V35Y | -0.212 ± 0.14 |
| I5N | -0.916 ± 0.24 |
| P23F | -0.405 ± 0.14 |
| G53H | 0.358 ± 0.1 |
| S79T | -0.179 ± 0.071 |

| Variant | abundance fitness |
| --- | --- |
| S79P | 0.16 ± 0.069 |
| I5T | -0.437 ± 0.1 |
| F32Q | -0.855 ± 0.19 |
| T3S | -0.633 ± 0.085 |
| T28D | -0.401 ± 0.14 |
| V78T | -0.127 ± 0.084 |
| L22R | -0.656 ± 0.071 |
| F32Y | -0.544 ± 0.18 |
| G11S | -0.262 ± 0.061 |
| C68L | 0.061 ± 0.074 |
| V55K | 0.199 ± 0.061 |
| A30K | 0.007 ± 0.066 |
| E13G | -0.348 ± 0.075 |
| P21V | -0.789 ± 0.087 |
| S60E | -0.269 ± 0.063 |
| F44K | -0.818 ± 0.17 |
| F43Q | -0.909 ± 0.18 |
| Q12K | -0.088 ± 0.11 |
| N70S | -0.568 ± 0.083 |
| E25Y | -0.501 ± 0.14 |
| D51R | 0.224 ± 0.059 |
| S79V | -0.682 ± 0.087 |
| R26Q | 0.123 ± 0.056 |
| P21Y | -0.693 ± 0.2 |

| Variant | abundance fitness |
| --- | --- |
| I59N | -0.736 ± 0.28 |
| G11H | -0.471 ± 0.19 |
| V35E | -0.468 ± 0.085 |
| T14Y | -0.955 ± 0.2 |
| H8K | -0.548 ± 0.11 |
| E57L | 0.136 ± 0.05 |
| S47L | 0.024 ± 0.05 |
| G11K | -0.384 ± 0.096 |
| Q12R | -0.053 ± 0.06 |
| S40W | -0.1 ± 0.06 |
| L17Q | 0.271 ± 0.057 |
| D61N | -0.33 ± 0.17 |
| K19P | -0.797 ± 0.13 |
| S60F | -0.189 ± 0.12 |
| D49W | -0.461 ± 0.093 |
| I5V | -0.265 ± 0.058 |
| S79M | -0.556 ± 0.1 |
| V55T | 0.195 ± 0.056 |
| Y7A | -0.882 ± 0.14 |
| R72M | 0.2 ± 0.1 |
| V18R | -0.717 ± 0.07 |
| G1N | -0.444 ± 0.26 |
| A30E | -0.831 ± 0.14 |
| L36A | -0.785 ± 0.12 |

| Variant | abundance fitness |
| --- | --- |
| D10S | -0.68 ± 0.086 |
| M48L | -0.074 ± 0.056 |
| T28R | -0.379 ± 0.053 |
| R72K | 0.102 ± 0.12 |
| T14V | -0.128 ± 0.059 |
| G53Q | 0.327 ± 0.055 |
| F45Q | -0.669 ± 0.13 |
| I5G | -0.643 ± 0.056 |
| T28F | -0.321 ± 0.16 |
| K46Q | 0.165 ± 0.067 |
| L17K | -0.367 ± 0.093 |
| V55L | -0.21 ± 0.055 |
| A30S | -0.261 ± 0.062 |
| V73S | -0.618 ± 0.088 |
| K19V | 0.383 ± 0.043 |
| D10M | -0.822 ± 0.15 |
| K19D | -0.547 ± 0.15 |
| K19H | -0.07 ± 0.1 |
| N70H | -0.165 ± 0.08 |
| E13P | -0.011 ± 0.065 |
| L77F | -0.855 ± 0.14 |
| I59K | -0.675 ± 0.13 |
| F52S | 0.37 ± 0.045 |
| P15F | -0.891 ± 0.48 |

| Variant | abundance fitness |
| --- | --- |
| D31F | -0.742 ± 0.24 |
| K33F | -0.661 ± 0.2 |
| G1W | -0.222 ± 0.098 |
| I59H | -0.628 ± 0.16 |
| K42E | -0.636 ± 0.11 |
| K33D | -1.06 ± 0.29 |
| Y41N | -0.727 ± 0.19 |
| A64S | -0.376 ± 0.071 |
| P23I | -0.112 ± 0.14 |
| V35L | -0.164 ± 0.06 |
| F52A | 0.263 ± 0.056 |
| L22P | -0.645 ± 0.12 |
| K42Y | -0.957 ± 0.33 |
| R72W | 0.139 ± 0.093 |
| S40G | 0.116 ± 0.039 |
| A80M | -0.101 ± 0.26 |
| P15G | -0.47 ± 0.054 |
| S75F | -0.793 ± 0.12 |
| R26E | 0.086 ± 0.054 |
| P23E | -0.383 ± 0.085 |
| Q12N | 0.269 ± 0.067 |
| V78N | -0.585 ± 0.1 |
| K65V | 0.072 ± 0.059 |
| P23N | -0.833 ± 0.23 |

| Variant | abundance fitness |
| --- | --- |
| D62R | -0.709 ± 0.082 |
| L9H | -1.14 ± 0.38 |
| Q12P | -0.638 ± 0.18 |
| R72N | 0.029 ± 0.063 |
| L20V | 0.104 ± 0.043 |
| L17I | 0.447 ± 0.084 |
| L20E | -0.615 ± 0.092 |
| I59M | -0.474 ± 0.097 |
| N70C | -0.467 ± 0.097 |
| K56A | -0.32 ± 0.06 |
| D61I | -0.384 ± 0.27 |
| F45H | -0.864 ± 0.24 |
| K65G | -0.47 ± 0.071 |
| F45C | -0.569 ± 0.12 |
| Q37F | -0.433 ± 0.13 |
| S75R | -0.606 ± 0.1 |
| F52K | 0.604 ± 0.051 |
| S47A | -0.051 ± 0.052 |
| P21K | -0.449 ± 0.092 |
| V54G | -0.127 ± 0.044 |
| G53I | -0.501 ± 0.19 |
| D50H | -0.188 ± 0.082 |
| V27W | -0.929 ± 0.14 |
